32 substances from patent US20180251489A1 can be followed below.

By Ki is commonly meant a dissociation constant, usually derived from enzyme kinetics or from competition with a known ligand.

For this assay, the target named is mucosa-associated lymphoid tissue lymphoma translocation protein 1 (UniProt Q9UDY8). Briefly: enzyme inhibition assay, 100 nM MALT1.
Sequence of mucosa-associated lymphoid tissue lymphoma translocation protein 1 (Q9UDY8 340-789): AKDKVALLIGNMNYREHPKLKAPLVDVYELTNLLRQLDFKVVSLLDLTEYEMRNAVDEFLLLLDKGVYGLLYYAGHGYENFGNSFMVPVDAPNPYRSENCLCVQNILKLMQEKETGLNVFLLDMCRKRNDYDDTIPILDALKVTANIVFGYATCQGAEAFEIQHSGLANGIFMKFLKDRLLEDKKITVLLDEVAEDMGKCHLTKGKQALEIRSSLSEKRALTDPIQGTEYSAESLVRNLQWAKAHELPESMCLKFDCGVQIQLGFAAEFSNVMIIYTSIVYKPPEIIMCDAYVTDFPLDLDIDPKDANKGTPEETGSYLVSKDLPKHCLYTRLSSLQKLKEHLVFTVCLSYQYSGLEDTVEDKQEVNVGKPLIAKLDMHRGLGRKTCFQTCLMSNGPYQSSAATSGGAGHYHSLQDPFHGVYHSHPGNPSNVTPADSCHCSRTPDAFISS
“(S)-N-((S)-1-fluoro-6-guanidino-2-oxohexan-3-yl)-1-((3-morpholinobenzoyl)-L-valyl)pyrrolidine-2-carboxamide (peptide)” showed an inhibitory constant (Ki) of 58 nM. The figure for “N-((S)-1-((S)-2-(((S)-1-Fluoro-6-guanidino-2-oxohexan-3-yl)carbamoyl)pyrrolidin-1-yl)-3-methyl-1-oxobutan-2-yl)-2-methylthiazole-4-carboxamide (peptide)” is 52 nM; for “(S)-1-((4-chlorobenzoyl)-L-valyl)-N-((S)-1-fluoro-6-guanidino-2-oxohexan-3-yl)pyrrolidine-2-carboxamide (peptide)” it is 67 nM. With “(S)-1-((3-Bromobenzoyl)-L-valyl)-N-((S)-1-fluoro-6-guanidino-2-oxohexan-3-yl)pyrrolidine-2-carboxamide (peptide)”, the inhibition constant (Ki) came to 41 nM. The figure for “(S)-1-((4-Bromobenzoyl)-L-valyl)-N-((S)-1-fluoro-6-guanidino-2-oxohexan-3-yl)azetidine-2-carboxamide (peptide)” is 118 nM; for “(S)-1-((4-Bromobenzoyl)-L-valyl)-N-((S)-1-fluoro-6-guanidino-2-oxohexan-3-yl)pyrrolidine-2-carboxamide (peptide)” it is 10 nM; for “(S)-1-((2-naphthoyl)-L-valyl)-N-((S)-1-fluoro-6-guanidino-2-oxohexan-3-yl)pyrrolidine-2-carboxamide (peptide)” it is 47 nM. As for “(S)-1-((Cyclohexanecarbonyl)-L-valyl)-N-((S)-1-fluoro-6-guanidino-2-oxohexan-3-yl)pyrrolidine-2-carboxamide (peptide)”, the figure is 56 nM; as for “N-((S)-1-((S)-2-(((S)-1-fluoro-6-guanidino-2-oxohexan-3-yl)carbamoyl)pyrrolidin-1-yl)-3-methyl-1-oxobutan-2-yl)isoquinoline-7-carboxamide (peptide)”, 110 nM. As for “(S)-1-(((3-Chlorophenyl)carbamoyl)-L-valyl)-N-((S)-1-fluoro-6-guanidino-2-oxohexan-3-yl)pyrrolidine-2-carboxamide (peptide)”, the figure is 27 nM.

In the case of “(2S,4R)-1-((4-Bromobenzoyl)-L-valyl)-N-((S)-1-fluoro-6-guanidino-2-oxohexan-3-yl)-4-hydroxypyrrolidine-2-carboxamide (peptide)”, the Ki amounted to 50 nM. Compared with the last substance, the Ki is about 1.9-fold higher.

Turning to “(S)-1-((4-bromo-3-cyanobenzoyl)-L-valyl)-N-((S)-1-fluoro-6-guanidino-2-oxohexan-3-yl)pyrrolidine-2-carboxamide (peptide)”, the Ki turned out to be 13 nM. Against the preceding substance, the Ki is about 3.8-fold lower.

As for “(S)-1-((3-acetamidobenzoyl)-L-valyl)-N-((S)-1-fluoro-6-guanidino-2-oxohexan-3-yl)pyrrolidine-2-carboxamide (peptide)”, the Ki was 54 nM. As for “Benzyl ((S)-1-cyclohexyl-2-((S)-2-(((S)-1-fluoro-6-guanidino-2-oxohexan-3-yl)carbamoyl)pyrrolidin-1-yl)-2-oxoethyl)carbamate (peptide)”, the figure is 44 nM; as for “benzyl ((S)-1-(((S)-1-(((S)-1-fluoro-6-guanidino-2-oxohexan-3-yl)amino)-3-hydroxy-1-oxopropan-2-yl)amino)-3-methyl-1-oxobutan-2-yl)carbamate (peptide)”, 64 nM; as for “Benzyl ((S)-1-((2S,4R)-2-(((S)-1-fluoro-6-guanidino-2-oxohexan-3-yl)carbamoyl)-4-hydroxypyrrolidin-1-yl)-3-methyl-1-oxobutan-2-yl)carbamate (peptide)”, 53 nM. As to “(S)-1-(((3-Chlorophenyl)carbamoyl)-L-valyl)-N-((R)-1-fluoro-6-guanidino-2-oxohexan-3-yl)pyrrolidine-2-carboxamide (peptide)”, the inhibition constant Ki amounted to 557 nM. The figure for “(S)-1-((S)-2-(4-Bromobenzamido)-3-cyclohexylpropanoyl)-N-((S)-1-fluoro-6-guanidino-2-oxohexan-3-yl)pyrrolidine-2-carboxamide (peptide)” is 122 nM; for “(S)-N-((S)-1-Fluoro-6-guanidino-2-oxohexan-3-yl)-1-((phenylcarbamoyl)-L-valyl)pyrrolidine-2-carboxamide (peptide)” it is 52 nM. The figure for “(S)-N-((S)-1-fluoro-6-guanidino-2-oxohexan-3-yl)-1-((3-(trifluoromethoxy)benzoyl)-L-valyl)pyrrolidine-2-carboxamide (peptide)” is 15 nM; for “(S)-1-(cinnamoyl-L-valyl)-N-((S)-1-fluoro-6-guanidino-2-oxohexan-3-yl)pyrrolidine-2-carboxamide (peptide)” it is 36 nM. Turning to “Benzyl ((S)-1-((S)-2-(((S)-1-fluoro-6-guanidino-2-oxohexan-3-yl)carbamoyl)piperidin-l-yl)-3-methyl-1-oxobutan-2-yl)carbamate (peptide)”, the Ki turned out to be 40 nM. The Ki values of the last two substances are within 1.5-fold of each other. The figure for “Benzyl ((R)-2-((S)-2-(((S)-1-fluoro-6-guanidino-2-oxohexan-3-yl)carbamoyl)pyrrolidin-1-yl)-2-oxo-1-(pyridin-3-yl)ethyl)carbamate (peptide)” is 146 nM. As for “N-((S)-1-((S)-2-(((S)-1-Fluoro-6-guanidino-2-oxohexan-3-yl)carbamoyl)pyrrolidin-1-yl)-3-methyl-1-oxobutan-2-yl)-1-methyl-1H-pyrazole-4-carboxamide (peptide)”, the figure is 100 nM; as for “Benzyl (1-((S)-2-(((S)-1-fluoro-6-guanidino-2-oxohexan-3-yl)carbamoyl)pyrrolidine-1-carbonyl)cyclopentyl)carbamate (peptide)”, 1180 nM; as for “(S)-1-((4-Bromo-2-methylbenzoyl)-L-valyl)-N-((S)-1-fluoro-6-guanidino-2-oxohexan-3-yl)pyrrolidine-2-carboxamide (peptide)”, 40 nM. The figure for “(S)-1-(Benzoyl-L-valyl)-N-((S)-1-fluoro-6-guanidino-2-oxohexan-3-yl)pyrrolidine-2-carboxamide (peptide)” is 40 nM; for “Benzyl ((2S,3R)-1-((S)-2-(((S)-1-fluoro-6-guanidino-2-oxohexan-3-yl)carbamoyl)pyrrolidin-1-yl)-3-methyl-1-oxopentan-2-yl)carbamate (peptide)” it is 30 nM. Turning to “2-Chlorobenzyl ((S)-1-((S)-2-(((S)-1-fluoro-6-guanidino-2-oxohexan-3-yl)carbamoyl)pyrrolidin-1-yl)-3-methyl-1-oxobutan-2-yl)carbamate (peptide)”, the inhibitory constant (Ki) came to 27 nM. The figure for “N-((S)-1-((S)-2-(((S)-1-fluoro-6-guanidino-2-oxohexan-3-yl)carbamoyl)pyrrolidin-1-yl)-3-methyl-1-oxobutan-2-yl)quinoline-3-carboxamide (peptide)” is 40 nM; for “(S)-N-((S)-1-Fluoro-6-guanidino-2-oxohexan-3-yl)-1-((4-morpholinobenzoyl)-L-valyl)pyrrolidine-2-carboxamide (peptide)” it is 75 nM. As for “(2S,4R)-1-((S)-2-(4-Bromobenzamido)-2-cyclohexylacetyl)-N-((S)-1-fluoro-6-guanidino-2-oxohexan-3-yl)-4-hydroxypyrrolidine-2-carboxamide (peptide)”, the figure is 34 nM.
